Laboratory results published in article PMC3299985 (Structure(London, England:1993), 2012).

T1: Orc1 (subunit of the purified ORC) (S. cerevisiae, UniProt P54784 1-914)
T1 sequence (looked up): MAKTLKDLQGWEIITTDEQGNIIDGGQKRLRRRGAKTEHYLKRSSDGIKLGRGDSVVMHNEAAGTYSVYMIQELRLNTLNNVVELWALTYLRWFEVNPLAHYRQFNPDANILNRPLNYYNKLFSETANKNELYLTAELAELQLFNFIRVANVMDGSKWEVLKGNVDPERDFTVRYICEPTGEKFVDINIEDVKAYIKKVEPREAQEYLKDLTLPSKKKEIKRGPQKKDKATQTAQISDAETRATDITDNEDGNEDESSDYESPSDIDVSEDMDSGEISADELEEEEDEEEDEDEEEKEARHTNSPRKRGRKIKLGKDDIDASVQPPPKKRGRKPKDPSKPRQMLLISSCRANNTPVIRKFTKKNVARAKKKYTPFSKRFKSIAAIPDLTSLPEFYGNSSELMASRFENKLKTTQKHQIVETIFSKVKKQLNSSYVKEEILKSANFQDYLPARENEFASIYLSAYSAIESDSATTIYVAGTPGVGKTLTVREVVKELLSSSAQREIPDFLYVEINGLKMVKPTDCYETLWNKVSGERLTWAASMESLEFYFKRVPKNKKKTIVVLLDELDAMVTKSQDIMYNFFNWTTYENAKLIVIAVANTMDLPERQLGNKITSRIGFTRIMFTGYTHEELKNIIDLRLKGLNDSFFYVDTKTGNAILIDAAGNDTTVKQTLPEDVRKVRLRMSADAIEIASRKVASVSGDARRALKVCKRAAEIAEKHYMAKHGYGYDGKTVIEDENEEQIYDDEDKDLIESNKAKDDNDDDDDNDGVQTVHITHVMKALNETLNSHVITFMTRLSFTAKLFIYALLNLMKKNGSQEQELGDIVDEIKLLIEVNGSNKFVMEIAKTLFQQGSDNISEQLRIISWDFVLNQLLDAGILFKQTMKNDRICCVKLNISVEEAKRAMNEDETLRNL

T2: Orc2 (subunit of the purified ORC) (S. cerevisiae, UniProt P32833 1-620)
T2 sequence (looked up): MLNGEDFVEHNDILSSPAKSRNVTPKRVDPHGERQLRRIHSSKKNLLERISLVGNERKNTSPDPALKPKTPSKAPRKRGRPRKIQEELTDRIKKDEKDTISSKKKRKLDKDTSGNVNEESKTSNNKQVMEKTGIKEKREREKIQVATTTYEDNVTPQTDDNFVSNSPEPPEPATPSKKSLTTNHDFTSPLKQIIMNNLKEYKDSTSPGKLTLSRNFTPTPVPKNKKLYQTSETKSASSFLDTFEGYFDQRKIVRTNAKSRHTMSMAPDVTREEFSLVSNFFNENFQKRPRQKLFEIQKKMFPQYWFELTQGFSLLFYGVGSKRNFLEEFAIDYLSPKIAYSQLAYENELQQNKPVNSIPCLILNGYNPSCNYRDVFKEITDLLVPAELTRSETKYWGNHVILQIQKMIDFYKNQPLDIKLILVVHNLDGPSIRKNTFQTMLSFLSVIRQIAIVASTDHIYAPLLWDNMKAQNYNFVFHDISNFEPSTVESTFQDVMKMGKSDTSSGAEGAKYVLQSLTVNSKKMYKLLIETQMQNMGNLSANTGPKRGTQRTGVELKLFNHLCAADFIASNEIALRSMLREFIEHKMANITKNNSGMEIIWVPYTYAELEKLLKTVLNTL

B1: S. cerevisiae Cdc6 (natural protein, UniProt P09119 1-513, looked up)
chain: MSAIPITPTKRIRRNLFDDAPATPPRPLKRKKLQFTDVTPESSPEKLQFGSQSIFLRTKALLQKSSELVNLNSSDGALPARTAEYEQVMNFLAKAISEHRSDSLYITGPPGTGKTAQLDMIIRQKFQSLPLSLSTPRSKDVLRHTNPNLQNLSWFELPDGRLESVAVTSINCISLGEPSSIFQKIFDSFQDLNGPTLQIKNMQHLQKFLEPYHKKTTFVVVLDEMDRLLHANTSETQSVRTILELFLLAKLPTVSFVLIGMANSLDMKDRFLSRLNLDRGLLPQTIVFQPYTAEQMYEIVIQKMSSLPTIIFQPMAIKFAAKKCAGNTGDLRKLFDVLRGSIEIYELEKRFLLSPTRGSLNSAQVPLTPTTSPVKKSYPEPQGKIGLNYIAKVFSKFVNNNSTRTRIAKLNIQQKLILCTIIQSLKLNSDATIDESFDHYIKAITKTDTLAPLQRNEFLEICTILETCGLVSIKKTKCKGKTKRFVDKIDVDLDMREFYDEMTKISILKPFLH
B2: Orc3 (subunit of the purified ORC) (natural protein, S. cerevisiae, UniProt P54790 1-616, looked up)
chain: MSDLNQSKKMNVSEFADAQRSHYTVYPSLPQSNKNDKHIPFVKLLSGKESEVNVEKRWELYHQLHSHFHDQVDHIIDNIEADLKAEISDLLYSETTQKRRCFNTIFLLGSDSTTKIELKDESSRYNVLIELTPKESPNVRMMLRRSMYKLYSAADAEEHPTIKYEDINDEDGDFTEQNNDVSYDLSLVENFKRLFGKDLAMVFNFKDVDSINFNTLDNFIILLKSAFKYDHVKISLIFNINTNLSNIEKNLRQSTIRLLKRNYHKLDVSSNKGFKYGNQIFQSFLDTVDGKLNLSDRFVEFILSKMANNTNHNLQLLTKMLDYSLMSYFFQNAFSVFIDPVNVDFLNDDYLKILSRCPTFMFFVEGLIKQHAPADEILSLLTNKNRGLEEFFVEFLVRENPINGHAKFVARFLEEELNITNFNLIELYHNLLIGKLDSYLDRWSACKEYKDRLHFEPIDTIFQELFTLDNRSGLLTQSIFPSYKSNIEDNLLSWEQVLPSLDKENYDTLSGDLDKIMAPVLGQLFKLYREANMTINIYDFYIAFRETLPKEEILNFIRKDPSNTKLLELAETPDAFDKVALILFMQAIFAFENMGLIKFQSTKSYDLVEKCVWRGI
B3: Orc4 (subunit of the purified ORC) (natural protein, S. cerevisiae, UniProt P54791 1-529, looked up)
chain: MTISEARLSPQVNLLPIKRHSNEEVEETAAILKKRTIDNEKCKDSDPGFGSLQRRLLQQLYGTLPTDEKIIFTYLQDCQQEIDRIIKQSIIQKESHSVILVGPRQSYKTYLLDYELSLLQQSYKEQFITIRLNGFIHSEQTAINGIATQLEQQLQKIHGSEEKIDDTSLETISSGSLTEVFEKILLLLDSTTKTRNEDSGEVDRESITKITVVFIFDEIDTFAGPVRQTLLYNLFDMVEHSRVPVCIFGCTTKLNILEYLEKRVKSRFSQRVIYMPQIQNLDDMVDAVRNLLTVRSEISPWVSQWNETLEKELSDPRSNLNRHIRMNFETFRSLPTLKNSIIPLVATSKNFGSLCTAIKSCSFLDIYNKNQLSNNLTGRLQSLSDLELAILISAARVALRAKDGSFNFNLAYAEYEKMIKAINSRIPTVAPTTNVGTGQSTFSIDNTIKLWLKKDVKNVWENLVQLDFFTEKSAVGLRDNATAAFYASNYQFQGTMIPFDLRSYQMQIILQELRRIIPKSNMYYSWTQL
B4: Orc6 (subunit of the purified ORC) (natural protein, S. cerevisiae, UniProt P38826 1-435, looked up)
chain: MSMQQVQHCVAEVLRLDPQEKPDWSSGYLKKLTNATSILYNTSLNKVMLKQDEEVARCHICAYIASQKMNEKHMPDLCYYIDSIPLEPKKAKHLMNLFRQSLSNSSPMKQFAWTPSPKKNKRSPVKNGGRFTSSDPKELRNQLFGTPTKVRKSQNNDSFVIPELPPMQTNESPSITRRKLAFEEDEDEDEEEPGNDGLSLKSHSNKSITGTRNVDSDEYENHESDPTSEEEPLGVQESRSGRTKQNKAVGKPQSELKTAKALRKRGRIPNSLLVKKYCKMTTEEIIRLCNDFELPREVAYKIVDEYNINASRLVCPWQLVCGLVLNCTFIVFNERRRKDPRIDHFIVSKMCSLMLTSKVDDVIECVKLVKELIIGEKWFRDLQIRYDDFDGIRYDEIIFRKLGSMLQTTNILVTDDQYNIWKKRIEMDLALTEPL
B5: Orc5 (subunit of the purified ORC) (natural protein, S. cerevisiae, UniProt P50874 1-479, looked up)
chain: MNVTTPEVAFREYQTNCLASYISADPDITPSNLILQGYSGTGKTYTLKKYFNANPNLHAVWLEPVELVSWKPLLQAIARTVQYKLKTLYPNIPTTDYDPLQVEEPFLLVKTLHNIFVQYESLQEKTCLFLILDGFDSLQDLDAALFNKYIKLNELLPKDSKINIKFIYTMLETSFLQRYSTHCIPTVMFPRYNVDEVSTILVMSRCGELMEDSCLRKRIIEEQITDCTDDQFQNVAANFIHLIVQAFHSYTGNDIFALNDLIDFKWPKYVSRITKENIFEPLALYKSAIKLFLSTDDNLSENGQGESAITTNRDDLENSQTYDLSIISKYLLIASYICSYLEPRYDASIFSRKTRIIQGRAAYGRRKKKEVNPRYLQPSLFAIERLLAIFQAIFPIQGKAESGSLSALREESLMKANIEVFQNLSELHTLKLIATTMNKNIDYLSPKVRWKVNVPWEIIKEISESVHFNISDYFSDIHE

Legend:
Test in all cases: cryo-EM structure
[1] = molecular target: T1, Orc1 (subunit of the purified ORC)
[2] = molecular target: T2, Orc2 (subunit of the purified ORC)
[3] = molecular target: B3

Row | binding result [1] | binding result [2] | binding result [3] | Binder
1 | binds |  |  | B1
2 |  | binds |  | B2
3 | binds |  |  | B3
4 |  | binds |  | B4
5 |  | binds | binds | B5
